Reference: the supplement of paper PMC7125110
± gives the standard error. For some of these results: This sample holds only a part of the variants without activity.

B1: glmS ribozyme (parent)
chain: AUAAAAGCGCCAGAACUACAGAAAUGUAGUUGACGAGGAGGAGGUUUAUCGAAUUUUCGGCGGAUGCCUCCAAA

Tests used:
Settings in all cases: with glucosamine-6-phosphate
[1] = variants of: B1; experiment: kcat; higher = faster cleavage; RNA array
Method in brief: (§1)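 On sequenced MiSeq chips, barcoded ribozyme variants were made in situ by E. coli RNA polymerase and followed at 37 °C through a hybridised Cy3 probe. Glucosamine-6-phosphate was flowed in at 40 μM to 10 mM in HEPES/KCl/Mg(OAc)2 buffer. Exponential fits to normalised per-tile medians gave kobs, and weighted Michaelis–Menten fits gave kcat and KM.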

[2] = variants of: B1; experiment: KM; higher = weaker cofactor use; RNA array
Method in brief: as §1

[3] = variants of: B1; experiment: self-cleavage kobs at 160 uM GlcN6P; higher = faster cleavage; RNA array
Method in brief: as §1

[4] = variants of: B1; experiment: self-cleavage kobs at 640 uM GlcN6P; higher = faster cleavage; RNA array
Method in brief: as §1

[5] = variants of: B1; experiment: self-cleavage kobs at 2500 uM GlcN6P; higher = faster cleavage; RNA array
Method in brief: as §1

[6] = variants of: B1; experiment: self-cleavage kobs at 10000 uM GlcN6P; higher = faster cleavage; RNA array
Method in brief: as §1

[7] = variants of: B1; experiment: self-cleavage kobs at 40 uM GlcN6P; higher = faster cleavage; RNA array
Method in brief: as §1

| Variant | kcat [1] | KM [2] | self-cleavage kobs at 160 uM GlcN6P [3] | self-cleavage kobs at 640 uM GlcN6P [4] | self-cleavage kobs at 2500 uM GlcN6P [5] | self-cleavage kobs at 10000 uM GlcN6P [6] | self-cleavage kobs at 40 uM GlcN6P [7] |
| --- | --- | --- | --- | --- | --- | --- | --- |
| G43U U55A | 2.33e-05 ± 3.8e-07 s⁻¹ | 1170 ± 67 µM | < 1e-05 s⁻¹ |  |  |  |  |
| G13U C58G | 0.000545 ± 0.00027 s⁻¹ |  |  | 9.89e-05 ± 1.6e-05 s⁻¹ | 0.000127 ± 2e-05 s⁻¹ | 0.000381 ± 3.9e-05 s⁻¹ |  |
| U47A A48U | 0.000219 ± 1.3e-05 s⁻¹ | 1570 ± 190 µM |  | 6.18e-05 ± 1e-05 s⁻¹ | 0.000143 ± 2.2e-05 s⁻¹ | 0.000181 ± 3.1e-05 s⁻¹ |  |
| A14C U46G | 0.000823 ± 0.00019 s⁻¹ | 1630 ± 660 µM | 8.78e-05 ± 1.5e-05 s⁻¹ | 0.000209 ± 2.4e-05 s⁻¹ | 0.000478 ± 4.8e-05 s⁻¹ | 0.000795 ± 0.0001 s⁻¹ | 4.79e-05 ± 1.2e-05 s⁻¹ |
| G51C U54C | < 1e-05 s⁻¹ |  |  | < 1e-05 s⁻¹ | < 1e-05 s⁻¹ |  |  |
| G37A U65A | 0.000179 ± 2.2e-05 s⁻¹ | 4340 ± 1300 µM |  |  | 7.66e-05 ± 1.9e-05 s⁻¹ | 0.000124 ± 1.4e-05 s⁻¹ |  |
| U31G U49G | 0.000191 ± 2.6e-06 s⁻¹ | 2140 ± 89 µM |  | 4.38e-05 ± 1.9e-05 s⁻¹ | 0.000102 ± 1.4e-05 s⁻¹ | 0.000157 ± 1.4e-05 s⁻¹ |  |
| U54G U56A U69G | 5.38e-05 ± 1.1e-05 s⁻¹ |  |  | 7.97e-05 ± 1.8e-05 s⁻¹ | 4.21e-05 ± 1.1e-05 s⁻¹ | 6e-05 ± 1.8e-05 s⁻¹ | 4.11e-05 ± 1.9e-05 s⁻¹ |
| A53U A64G | 0.0234 ± 0.0024 s⁻¹ | 1970 ± 260 µM | 0.00148 ± 0.00041 s⁻¹ | 0.00551 ± 0.0013 s⁻¹ | 0.0138 ± 0.0041 s⁻¹ | 0.0195 ± 0.0038 s⁻¹ | 0.000491 ± 6.1e-05 s⁻¹ |
| A6C U54C | 0.000106 ± 1.8e-05 s⁻¹ | 2090 ± 1000 µM |  |  | 6.36e-05 ± 1e-05 s⁻¹ | 8.4e-05 ± 1.4e-05 s⁻¹ |  |
| A33U A53G | 3.38e-05 ± 6.8e-06 s⁻¹ |  |  |  | 3.39e-05 ± 1e-05 s⁻¹ | 2.98e-05 ± 6.7e-06 s⁻¹ | < 1e-05 s⁻¹ |
| C58A U65C | 6.66e-05 ± 7.6e-06 s⁻¹ | 5030 ± 1300 µM |  |  |  | 4.42e-05 ± 2.2e-05 s⁻¹ |  |
| A6C C67A | 3.57e-05 ± 2.8e-07 s⁻¹ | 1260 ± 54 µM |  |  |  | 3.18e-05 ± 9.1e-06 s⁻¹ |  |
| U45A C50U | 0.000477 ± 0.00018 s⁻¹ |  |  |  | 3.25e-05 ± 1.4e-05 s⁻¹ | 0.000107 ± 1.3e-05 s⁻¹ |  |
| C11U A39C | 0.000759 ± 0.00011 s⁻¹ | 4650 ± 1100 µM |  | 8.75e-05 ± 1.3e-05 s⁻¹ | 0.000299 ± 5e-05 s⁻¹ | 0.00051 ± 5.5e-05 s⁻¹ |  |
| A6G U54A | 0.000561 ± 5.2e-05 s⁻¹ | 1600 ± 440 µM |  | 0.000143 ± 5.7e-05 s⁻¹ | 0.000387 ± 0.00011 s⁻¹ | 0.000476 ± 7.7e-05 s⁻¹ |  |
| U56A C71G | 0.00102 ± 0.00013 s⁻¹ | 1010 ± 210 µM | 0.000119 ± 1.8e-05 s⁻¹ | 0.000396 ± 4.5e-05 s⁻¹ | 0.000715 ± 9.6e-05 s⁻¹ | 0.000952 ± 0.0001 s⁻¹ | 5.19e-05 ± 8e-06 s⁻¹ |

| Variant | kcat [1] | KM [2] | self-cleavage kobs at 160 uM GlcN6P [3] | self-cleavage kobs at 640 uM GlcN6P [4] | self-cleavage kobs at 2500 uM GlcN6P [5] | self-cleavage kobs at 10000 uM GlcN6P [6] | self-cleavage kobs at 40 uM GlcN6P [7] |
| --- | --- | --- | --- | --- | --- | --- | --- |
| G51A A53C | < 1e-05 s⁻¹ |  |  | < 1e-05 s⁻¹ |  |  |  |
| C61A C71U | 1.05e-05 ± 3.5e-06 s⁻¹ |  |  | < 1e-05 s⁻¹ |  |  |  |
| A42G C58A | 0.00048 ± 3.7e-05 s⁻¹ | 2480 ± 390 µM |  | 9.53e-05 ± 3.4e-05 s⁻¹ | 0.000279 ± 0.00013 s⁻¹ | 0.000379 ± 9.4e-05 s⁻¹ |  |
| U65G G66A | 0.00234 ± 0.0003 s⁻¹ | 2300 ± 450 µM | 0.000131 ± 2.3e-05 s⁻¹ | 0.000612 ± 0.0001 s⁻¹ | 0.0013 ± 0.0002 s⁻¹ | 0.00183 ± 0.00025 s⁻¹ | 4.28e-05 ± 9.4e-06 s⁻¹ |
| A15G C16U C68G | 5.74e-05 ± 2.6e-05 s⁻¹ |  |  | 8.06e-05 ± 1.8e-05 s⁻¹ | 8.91e-05 ± 3e-05 s⁻¹ |  |  |
| A12U U47A | 0.063 ± 0.02 s⁻¹ | 1490 ± 570 µM | 0.0041 ± 0.00089 s⁻¹ | 0.0249 ± 0.0068 s⁻¹ | 0.0403 ± 0.011 s⁻¹ | 0.0554 ± 0.01 s⁻¹ | 0.00189 ± 0.00018 s⁻¹ |
| A14U U49C | < 1e-05 s⁻¹ |  | < 1e-05 s⁻¹ |  |  |  | < 1e-05 s⁻¹ |
| G38A C68A | < 1e-05 s⁻¹ |  |  |  |  | < 1e-05 s⁻¹ | < 1e-05 s⁻¹ |
| U49G A64U | 1.18e-05 ± 9.4e-07 s⁻¹ |  | < 1e-05 s⁻¹ |  |  |  | < 1e-05 s⁻¹ |
| A15U U69G | 5.2e-05 ± 1.9e-05 s⁻¹ |  | 4.3e-05 ± 1.3e-05 s⁻¹ |  | 6.85e-05 ± 2.1e-05 s⁻¹ |  |  |
| A42G A64U | 0.000207 ± 1.6e-05 s⁻¹ | 2880 ± 600 µM |  |  | 0.000104 ± 2.3e-05 s⁻¹ | 0.000158 ± 2.2e-05 s⁻¹ |  |
| A39C U56A | 0.00331 ± 0.00086 s⁻¹ | 4000 ± 1500 µM | 0.000129 ± 3.6e-05 s⁻¹ | 0.000412 ± 5.2e-05 s⁻¹ | 0.00133 ± 0.00019 s⁻¹ | 0.00238 ± 0.00034 s⁻¹ | 5.87e-05 ± 1.3e-05 s⁻¹ |
| U31G G41C | 0.000172 ± 3.9e-05 s⁻¹ |  |  |  | 0.000167 ± 3.6e-05 s⁻¹ | 0.000139 ± 2.2e-05 s⁻¹ |  |
| G29C A48U U69G | 6.26e-05 ± 2.1e-05 s⁻¹ |  |  | 5.01e-05 ± 2.1e-05 s⁻¹ | 7.04e-05 ± 3e-05 s⁻¹ |  |  |
| A6U C67A | 7.39e-05 ± 6.8e-06 s⁻¹ |  |  | 6.68e-05 ± 1.7e-05 s⁻¹ | 5.62e-05 ± 1.1e-05 s⁻¹ | 7.43e-05 ± 7.2e-06 s⁻¹ |  |
| A33U G41U | 2.33e-05 ± 1.9e-06 s⁻¹ |  | < 1e-05 s⁻¹ |  | 2.26e-05 ± 8e-06 s⁻¹ | 2.14e-05 ± 6.8e-06 s⁻¹ | < 1e-05 s⁻¹ |
| G29A G40U | 0.000248 ± 5.6e-05 s⁻¹ |  |  | 8.95e-05 ± 1.9e-05 s⁻¹ | 0.000207 ± 2.8e-05 s⁻¹ | 0.000182 ± 4e-05 s⁻¹ |  |
